Substitutions are numbered along the chain they refer to.
B1: 267H5F12 (antibody, V domains shown)
VH: QAYLQQSGAELVRSGASVKMSCKASGYTFTSHNMHWVKQTPGQGLEWIGYISPGNGYTNYNQKFRGKATLTADTSSSTAYMQISSLTSEDSAVYFCTRDYYGNSFTYWGQGTLVTVSA
VL: DIVMTQSPSSLTEKAGERVSMSCKSSQSLFNSGNQKNYLTWYQQKPGQPPKLLIYWASTRESGVPDRFTGSGSGTEFTLTISSVQAEDLAVYYCQNNYWFPFTFGAGTKLELK
B2: 275H9A2 (antibody, V domains shown)
VH: B1 VH with K23R, T28S, S52Y, Y57G, T58S, N59Y, R65K, T69I, T106V
VL: B1 VL with I2V, A15T, R18K, F30L, E76D, V84L, A86T, Y98F, W99R, F100Y
B3: 394C2G5 (antibody, V domains shown)
VH: DVQLVESGGGLVQPGGSRKLSCAASGFTFSGFGMHWIRQTPEKGLEWVAYVSSGSRPIYYADTVKGRFTISRDNPKNTLFLQMTSLRSEDTAMYFCARFYYGNSFDHWGQGTLVTVSA
VL: DIVMTQSPSFLTVTAGEKVTMSCKSSQSLLNSGNQKNYLTWYQQKPGQPPKLLIYWASTRESGVPDRFTGSGSGTDFTLTINNVQAEDLALYYCQNAYSFPLTFGAGTKLELT
B4: 405G8F11 (antibody, V domains shown)
VH: B3 VH with A23V, A24T, G31S, I37V, T40A, V51I, R56S, T84S, D106A, H107Y
VL: DIVMTQSPSSLTVTAGEKVTMNCKSSQSLLNSGNQKNYLTWYQQKLGQPPKLLMYWASTRESGVPDRFTGSGSGTDFTLTISSVQAEDLAVYFCQSAFSYPLTFGAGTKLELK
B5: 392C2F10 (antibody, V domains shown)
VH: EVQLQQSGPELVKPGASMKISCKASGYSFTGYTMNWVKQSLGKNLEWIGLINPFNGGTTYNQKFKGKATLTVDKSSSTAYMELLSLTSDDSAVYYCTRGDYWGQGTTLTVSS
VL: DIVMTQSPSSLTVTAGEKVTMSCKSSQSLLNSGNQKNYLTWYQQKPGQPPKLLIYWASTRESGVPDRFAGSGSGTDFTLTISSVQAEDLAVYYCQSDYSYPTFGAGTKLELK
B6: 267B2C5 (antibody, V domains shown)
VH: QVQLKESGPGLVAPSQSLAITCTVSGFSLTTYGVSWVRQPPGKGLEWLGVIWGDGSTHYHSALISRLSIRKDNSKSQVFLKVNSLQTDDTATYYCGKPGRGNAMDYWGQGTSVTVSS
VL: DIVMTQSPSSLTVTAGEKVTMSCKSSQSLLNSGNQKNYLTWYQQKPGQSPKLLIYWASTRESGVPDRFTGSGSGTDFTLTISSVQAEDLAVYYCQNDYIYPLTFGGGTTLELK
B7: 275B2G2 (antibody, V domains shown)
VH: EVMLVESGGGLVKPGGSLKLSCAASGFTFRDYTMSWVRQTPEKRLEWVATSIIGGTYTYYPDSVKGRFTISRDNVKNTLYLQMSSLRSEDTAMYYCSRLGRGNAMDYWGQGTSVTVSS
VL: B6 VL with S49P, I99S, L102F, G106S, T109K, L112I
B8: 198F10B8 (antibody, V domains shown)
VH: QAYLQQSGAELVRSGASVRMSCKASGYTFSSYNMHWVKQTPGQGLEWIGYIYPGNGGTNYNQKFKDKATLTADTSSSTAFIQISSLTSEDSAVYFCLTGRGFAYWGQGTLVTVSA
VL: B6 VL with K18R, L30F, S49P, W56R, I99S, G106V, T109K
B9: 273C10E5 (antibody, V domains shown)
VH: QVQLQQSGAELVKPGASVKLSCKASGYTFTSFGINWLRQRPEQGLEWIGWIFPGDGNSKYNENFKGKATLTTDKSSSTAYMQVTRLTSEDSAVYFCARFYYGNSFANWGQGTLVTVSA
VL: B6 VL with S49P, S58A, T69A, I99F, L102F, G106A, T109K
B10: 279E8B8 (antibody, V domains shown)
VH: QAYLQQSGAELVRSGASVKISCKASGYTFASHNMHWVKQTPGQGLEWIGYIYPGNGGTKYNQKFTGKATLSADTSSSTAYLQISSLTSEDSAVYFCARDYFGNSFVYWGQGTLVTVSA
VL: B1 VL with R18K, S22R, F30L, E76D, E87D, N97D, W99M, F100Y
B11: 393C2C5 (antibody, V domains shown)
VH: B3 VH with G31S, I37V, T40A, V51I, R56S, R98T, D106A, H107Y
VL: B6 VL with S28T, P46S, S49P, D97A, I99S, L102V, G106S, T109K, L110V
B12: 286C7F11 (antibody, V domains shown)
VH: QVQLKESGPGLVAPSQSLSITCTVSGFSLTDYGVSWIRQPPGKGLEWLGVIWNRGNTYYNSALKSRLSISKDNSKSQVFLRMNSLQTDDTAMYYCAKHDFLRFLDYWGQGTTLTVSS
VL: B6 VL with I2V, S49P, L52I, T78S, S82T, Q95L, I99Y, G106A, T109K
B13: 292D9C7 (antibody, V domains shown)
VH: B12 VH with N53G, R54G, T57A, R81K, Q86R, H98N, D99G, F100L, F103Y, T111S
VL: B6 VL with I2T, S49P, T75R, A86V, V91I, I99Y, G106A, T109K, L110V
B14: 370E2B12C3 (antibody, V domains shown)
VH: QVQLKESGPGLVAPSQSLSITCTVSGFSLTTYGVHWVRQPPGKGLEWLGVIWAGGSTNYNSALMSRVSINKDNSKSQVFIKMNSLQADDTALYYCARAAYYGNGLDYWGQGTTLTVSS
VL: B6 VL with S28T, S49P, R60G, Y93F, D97A, I99F, L102F, T109K, L112I
B15: 273F3D4 (antibody, V domains shown)
VH: B6 VH with A19S, S28A, V82L, G96A
VL: B6 VL with T5S, V84M, G106A, T109M
B16: 280F3B6 (antibody, V domains shown)
VH: B1 VH with S52Y, Y57G, R65K, T106A
VL: B1 VL with E76D, N97D, F100Y
B17: 391F1G2 (antibody, V domains shown)
VH: B3 VH with G31S, I37V, T40A, V51I, R56S, F99I, D106A, H107Y
VL: B6 VL with T20A, S28T, S49P, I54L, D97A, I99Y, G106S, T109K
B18: 196A12B10 (antibody, V domains shown)
VH: QIQWVQSGPELKKPRETVKISCKASGYTFTDYSMHWVKQAPGKGLKWMGWINSETGEATYADDFRGRFALSLETSATTAFLQINSLKNEDTGTYFCARFYYGNSFASWGQGTTLTVSS
VL: DIVMTQFPSSLTVTAGEKVTMTCKSSQSLLNGGNQKNYLTWYQQKPGLPPKLLIYWASTRESGVPDRFTGSGSGTEFTLTISSVQAEDLAVYYCQNNYYFPLTFGAGTKLELK
B19: 277F1F8 (antibody, V domains shown)
VH: B1 VH with A9P, S52N, Y57G, T58N, R65K, T97A, T106A, Y107F
VL: B1 VL with K14T, R18K, F30L, E76D, N97D, W99R
B20: 266B11F7 (antibody, V domains shown)
VH: QVQMKESGPGLVAPSQSLSITCTVSGFSLTTYGVTWVRQPPGKGLEWLGVIWGDGSTNYHSALTSRLRISKDKSKSQVFLKLSSLQTDDTATYYCAKPGRGNALDYWGQGTSVTVSS
VL: B6 VL with S22R, S49P, I54V, I81V, Y100F, G106A, T109K
B21: 391H11H3 (antibody, V domains shown)
VH: B3 VH with V51I, K65Q, A118S
VL: B3 VL with N82S, N83S, T113K
B22: 271B1B6 (antibody, V domains shown)
VH: QAYLQQSGAELVRSGASVKMSCKASGYTFTNYNIHWVKQTPGQGLEWIGYIYPGNGGNYYNQKFKGKATLTADTSSITAYMQISSLTSEDSAVYFCARDYYGNSFAYWGQGTLVTVSA
VL: B6 VL with S22N, S49P, V91I, I99Y, G106A, T109K
B23: 268D7H9 (antibody, V domains shown)
VH: B22 VH with I77S
VL: B6 VL with V3A, S22N, S49P, V91I, I99Y, G106A
B24: 406E1H7 (antibody, V domains shown)
VH: B3 VH with V51I, K65Q, A118S
VL: B3 VL with N82S, N83S, T113K
B25: 395B3C11 (antibody, V domains shown)
VH: B3 VH with V51I, K65Q, A118S
VL: B3 VL with N82S, N83S, T113K
B26: 392A11C8 (antibody, V domains shown)
VH: B3 VH with V51I
VL: B3 VL with K24R, N82S, N83S, T113K
B27: 406F11G8 (antibody, V domains shown)
VH: B3 VH with G31S, I37V, T40A, V51I, R56S, P75S, F99I, D106A, H107Y
VL: B6 VL with T20A, S28T, S49P, D97A, I99Y, G106S, T109K

Biological target: human Claudin18.2 (human)
Test: cell-based or functional assay

| Binder | CDC % Relative activity [%] | CDC EC50 [µg/mL] |
| --- | --- | --- |
| B1 | 172 | 1 |
| B2 | 142 | 1.15 |
| B3 | 131 | 1.98 |
| B4 | 0.08 | 3220 |
| B5 | 5.43 | 47.6 |
| B6 | 142 | 1.21 |
| B7 | 98.4 | 1.66 |
| B8 | 526 | 0.3 |
| B9 | 67.6 | 2.41 |
| B10 | 129 | 1.27 |
| B11 | 285 | 0.909 |
| B12 | 107 | 1.52 |
| B13 | 151 | 1.14 |
| B14 | 379 | 0.453 |
| B15 | 105 | 1.56 |
| B16 | 121 | 1.35 |
| B17 | 176 | 1.47 |
| B18 | 93.6 | 1.69 |
| B19 | 106 | 1.54 |
| B20 | 97.4 | 1.77 |
| B21 | 125 | 2.07 |
| B22 | 145 | 1.12 |
| B23 | 140 | 1.23 |
| B24 | 125 | 2.07 |
| B25 | 144 | 1.8 |
| B26 | 133 | 1.95 |
| B27 | 101 | 2.57 |

Reference: US20220073643A1 (NANJING GENSCRIPT BIOTECH, published 2022)
